Assay results reported in patent US10941182 (Amgen, dated 2021).
Starred links: 1 amine or outer side, 2 acyl side, 3 side chain; linkers in the order of their positions; H or OH if unused. Non-standard residues stand in square brackets, D forms with d. *: point of attachment. Oic = O=C(O)[C@@H]1C[C@@H]2CCCC[C@@H]2N1; Phe(4-Cl) = N[C@@H](Cc1ccc(Cl)cc1)C(=O)O; dPhe(4-Cl) = N[C@H](Cc1ccc(Cl)cc1)C(=O)O; γGlu = O=C(O)[C@H](CCC(=O)[*:2])N[*:1]; 2Nal = N[C@@H](Cc1ccc2ccccc2c1)C(=O)O; NMeR = CN[C@@H](CCCNC(=N)N)C(=O)O; Tridecanoyl = CCCCCCCCCCCCC(=O)*; hArg = N=C(N)NCCCC[C@H](N)C(=O)O; Cha = N[C@@H](CC1CCCCC1)C(=O)O; αMeL = CC(C)C[C@](C)(N)C(=O)O; β3hP = O=C(O)C[C@@H]1CCCN1; Nle = CCCC[C@H](N)C(=O)O; Orn = NCCC[C@H](N)C(=O)O; Deg = CCC(N)(CC)C(=O)O; AEEA = NCCOCCOCC(=O)O; Aib = CC(C)(N)C(=O)O

T1: human APJ receptor (human, UniProt P35414 1-380)
T1 sequence (looked up): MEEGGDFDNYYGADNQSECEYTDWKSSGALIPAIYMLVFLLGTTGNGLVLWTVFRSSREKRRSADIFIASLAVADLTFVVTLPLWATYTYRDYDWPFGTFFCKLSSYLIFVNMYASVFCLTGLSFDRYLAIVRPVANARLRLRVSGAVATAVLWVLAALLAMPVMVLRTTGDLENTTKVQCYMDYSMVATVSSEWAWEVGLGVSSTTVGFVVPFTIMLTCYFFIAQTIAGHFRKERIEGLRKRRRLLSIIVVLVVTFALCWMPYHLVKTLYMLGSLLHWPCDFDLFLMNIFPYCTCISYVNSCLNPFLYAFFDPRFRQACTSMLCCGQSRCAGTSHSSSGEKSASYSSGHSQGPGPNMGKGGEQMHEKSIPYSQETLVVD

T2: rat APJ receptor (rat, UniProt Q9JHG3 1-377)
T2 sequence (looked up): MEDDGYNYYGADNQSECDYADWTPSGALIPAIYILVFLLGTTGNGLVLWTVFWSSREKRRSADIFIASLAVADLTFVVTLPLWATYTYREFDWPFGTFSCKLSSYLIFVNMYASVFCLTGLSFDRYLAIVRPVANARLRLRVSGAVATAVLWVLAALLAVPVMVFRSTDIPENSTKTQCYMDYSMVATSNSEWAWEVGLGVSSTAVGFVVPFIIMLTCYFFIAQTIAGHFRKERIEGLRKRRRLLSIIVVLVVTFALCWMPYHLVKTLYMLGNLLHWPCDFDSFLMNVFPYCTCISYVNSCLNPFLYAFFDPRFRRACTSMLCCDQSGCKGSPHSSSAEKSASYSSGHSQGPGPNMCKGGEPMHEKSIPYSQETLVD


Assays:
[1] = target: T1, human APJ receptor; test: cell-based or functional assay
[2] = target: T2, rat APJ receptor; test: cell-based or functional assay

| Binder | EC50 Human APJ Receptor (GTPγS assay) [1] [nM] | EC50 Rat APJ Receptor (GTPγS assay) [2] [nM] |
| --- | --- | --- |
| Tridecanoyl-[γGlu][AEEA][AEEA]Q[β3hP][NMeR][Cha]SHKG[Oic][Nle][Aib][Phe(4-Cl)]-OH (SMILES CCCCCCCCCCCCC(=O)N[C@@H](CCC(=O)NCCOCCOCC(=O)NCCOCCOCC(=O)N[C@@H](CCC(N)=O)C(=O)N1CCC[C@H]1CC(=O)N(C)[C@@H](CCCNC(=N)N)C(=O)N[C@@H](CC1CCCCC1)C(=O)N[C@@H](CO)C(=O)N[C@@H](Cc1c[nH]cn1)C(=O)N[C@@H](CCCCN)C(=O)NCC(=O)N1[C@H](C(=O)N[C@@H](CCCC)C(=O)NC(C)(C)C(=O)N[C@@H](Cc2ccc(Cl)cc2)C(=O)O)C[C@@H]2CCCC[C@@H]21)C(=O)O) [Apelin polypeptide SEQ ID NO: 550] | 94.8 | 135 |
| Tridecanoyl-[γGlu][AEEA][AEEA]Q[hArg]P[NMeR][αMeL]SHKGP[Nle]P[2Nal]-OH (SMILES CCCCCCCCCCCCC(=O)N[C@@H](CCC(=O)NCCOCCOCC(=O)NCCOCCOCC(=O)N[C@@H](CCC(N)=O)C(=O)N[C@@H](CCCCNC(=N)N)C(=O)N1CCC[C@H]1C(=O)N(C)[C@@H](CCCNC(=N)N)C(=O)N[C@@](C)(CC(C)C)C(=O)N[C@@H](CO)C(=O)N[C@@H](Cc1c[nH]cn1)C(=O)N[C@@H](CCCCN)C(=O)NCC(=O)N1CCC[C@H]1C(=O)N[C@@H](CCCC)C(=O)N1CCC[C@H]1C(=O)N[C@@H](Cc1ccc2ccccc2c1)C(=O)O)C(=O)O) [Apelin polypeptide SEQ ID NO: 473] | 0.099 | 0.465 |
| Tridecanoyl-[γGlu][AEEA][AEEA]Q[hArg]P[hArg]LSHKG[Oic][Nle]P[Phe(4-Cl)]-OH (SMILES CCCCCCCCCCCCC(=O)N[C@@H](CCC(=O)NCCOCCOCC(=O)NCCOCCOCC(=O)N[C@@H](CCC(N)=O)C(=O)N[C@@H](CCCCNC(=N)N)C(=O)N1CCC[C@H]1C(=O)N[C@@H](CCCCNC(=N)N)C(=O)N[C@@H](CC(C)C)C(=O)N[C@@H](CO)C(=O)N[C@@H](Cc1c[nH]cn1)C(=O)N[C@@H](CCCCN)C(=O)NCC(=O)N1[C@H](C(=O)N[C@@H](CCCC)C(=O)N2CCC[C@H]2C(=O)N[C@@H](Cc2ccc(Cl)cc2)C(=O)O)C[C@@H]2CCCC[C@@H]21)C(=O)O) [Apelin polypeptide SEQ ID NO: 358] | 0.285 | 0.314 |
| Tridecanoyl-[γGlu][AEEA][AEEA][dQ][hArg]P[hArg][Cha]SHKG[Oic][Nle]P[Phe(4-Cl)]-OH (SMILES CCCCCCCCCCCCC(=O)N[C@@H](CCC(=O)NCCOCCOCC(=O)NCCOCCOCC(=O)N[C@H](CCC(N)=O)C(=O)N[C@@H](CCCCNC(=N)N)C(=O)N1CCC[C@H]1C(=O)N[C@@H](CCCCNC(=N)N)C(=O)N[C@@H](CC1CCCCC1)C(=O)N[C@@H](CO)C(=O)N[C@@H](Cc1c[nH]cn1)C(=O)N[C@@H](CCCCN)C(=O)NCC(=O)N1[C@H](C(=O)N[C@@H](CCCC)C(=O)N2CCC[C@H]2C(=O)N[C@@H](Cc2ccc(Cl)cc2)C(=O)O)C[C@@H]2CCCC[C@@H]21)C(=O)O) [Apelin polypeptide SEQ ID NO: 488] | 0.198 | 1.72 |
| Tridecanoyl-[γGlu][AEEA][AEEA]Q[hArg]P[hArg][Cha]SHKG[Oic][Nle]P[Phe(4-Cl)]-OH (SMILES CCCCCCCCCCCCC(=O)N[C@@H](CCC(=O)NCCOCCOCC(=O)NCCOCCOCC(=O)N[C@@H](CCC(N)=O)C(=O)N[C@@H](CCCCNC(=N)N)C(=O)N1CCC[C@H]1C(=O)N[C@@H](CCCCNC(=N)N)C(=O)N[C@@H](CC1CCCCC1)C(=O)N[C@@H](CO)C(=O)N[C@@H](Cc1c[nH]cn1)C(=O)N[C@@H](CCCCN)C(=O)NCC(=O)N1[C@H](C(=O)N[C@@H](CCCC)C(=O)N2CCC[C@H]2C(=O)N[C@@H](Cc2ccc(Cl)cc2)C(=O)O)C[C@@H]2CCCC[C@@H]21)C(=O)O) [Apelin polypeptide SEQ ID NO: 489] | 0.601 | 3.59 |
| Tridecanoyl-[γGlu][AEEA][AEEA][dQ][hArg][Deg][dR][Cha]SHKG[Oic][Nle]P[Phe(4-Cl)]-OH (SMILES CCCCCCCCCCCCC(=O)N[C@@H](CCC(=O)NCCOCCOCC(=O)NCCOCCOCC(=O)N[C@H](CCC(N)=O)C(=O)N[C@@H](CCCCNC(=N)N)C(=O)NC(CC)(CC)C(=O)N[C@H](CCCNC(=N)N)C(=O)N[C@@H](CC1CCCCC1)C(=O)N[C@@H](CO)C(=O)N[C@@H](Cc1c[nH]cn1)C(=O)N[C@@H](CCCCN)C(=O)NCC(=O)N1[C@H](C(=O)N[C@@H](CCCC)C(=O)N2CCC[C@H]2C(=O)N[C@@H](Cc2ccc(Cl)cc2)C(=O)O)C[C@@H]2CCCC[C@@H]21)C(=O)O) [Apelin polypeptide SEQ ID NO: 455] | 2.48 | 10.3 |
| Tridecanoyl-[γGlu][AEEA][AEEA][dQ][hArg][Oic][dR][Cha]SHKG[Oic][Nle]P[Phe(4-Cl)]-OH (SMILES CCCCCCCCCCCCC(=O)N[C@@H](CCC(=O)NCCOCCOCC(=O)NCCOCCOCC(=O)N[C@H](CCC(N)=O)C(=O)N[C@@H](CCCCNC(=N)N)C(=O)N1[C@H](C(=O)N[C@H](CCCNC(=N)N)C(=O)N[C@@H](CC2CCCCC2)C(=O)N[C@@H](CO)C(=O)N[C@@H](Cc2c[nH]cn2)C(=O)N[C@@H](CCCCN)C(=O)NCC(=O)N2[C@H](C(=O)N[C@@H](CCCC)C(=O)N3CCC[C@H]3C(=O)N[C@@H](Cc3ccc(Cl)cc3)C(=O)O)C[C@@H]3CCCC[C@@H]32)C[C@@H]2CCCC[C@@H]21)C(=O)O) [Apelin polypeptide SEQ ID NO: 486] | 1.79 | 4.04 |
| Tridecanoyl-[γGlu][AEEA][AEEA][Orn]F[hArg][hArg]Q[NMeR]P[NMeR][Cha]SHKG[Oic][Nle]P[Phe(4-Cl)]-OH (SMILES CCCCCCCCCCCCC(=O)N[C@@H](CCC(=O)NCCOCCOCC(=O)NCCOCCOCC(=O)N[C@@H](CCCN)C(=O)N[C@@H](Cc1ccccc1)C(=O)N[C@@H](CCCCNC(=N)N)C(=O)N[C@@H](CCCCNC(=N)N)C(=O)N[C@@H](CCC(N)=O)C(=O)N(C)[C@@H](CCCNC(=N)N)C(=O)N1CCC[C@H]1C(=O)N(C)[C@@H](CCCNC(=N)N)C(=O)N[C@@H](CC1CCCCC1)C(=O)N[C@@H](CO)C(=O)N[C@@H](Cc1c[nH]cn1)C(=O)N[C@@H](CCCCN)C(=O)NCC(=O)N1[C@H](C(=O)N[C@@H](CCCC)C(=O)N2CCC[C@H]2C(=O)N[C@@H](Cc2ccc(Cl)cc2)C(=O)O)C[C@@H]2CCCC[C@@H]21)C(=O)O) [Apelin polypeptide SEQ ID NO: 297] | 0.698 | 1.02 |
| XXXQRPRLSHKGPXPF ({TDA}[AC4Abu][Aeea][Aeea]Q[hArg]P[NMeArg][aMeLeu]SHKGP[Nle]P[4-Cl-F]{COOH}) [Apelin polypeptide SEQ ID NO: 460] | 0.0347 | 0.0628 |
| Tridecanoyl-[γGlu][AEEA][AEEA][dQ][hArg][β3hP][NMeR][Cha]SHKG[Oic][Nle]P[dPhe(4-Cl)]-OH (SMILES CCCCCCCCCCCCC(=O)N[C@@H](CCC(=O)NCCOCCOCC(=O)NCCOCCOCC(=O)N[C@H](CCC(N)=O)C(=O)N[C@@H](CCCCNC(=N)N)C(=O)N1CCC[C@H]1CC(=O)N(C)[C@@H](CCCNC(=N)N)C(=O)N[C@@H](CC1CCCCC1)C(=O)N[C@@H](CO)C(=O)N[C@@H](Cc1c[nH]cn1)C(=O)N[C@@H](CCCCN)C(=O)NCC(=O)N1[C@H](C(=O)N[C@@H](CCCC)C(=O)N2CCC[C@H]2C(=O)N[C@H](Cc2ccc(Cl)cc2)C(=O)O)C[C@@H]2CCCC[C@@H]21)C(=O)O) [Apelin polypeptide SEQ ID NO: 301] | 36 | 29 |
| Tridecanoyl-[γGlu][AEEA][AEEA]Q[hArg]P[NMeR][αMeL]SHKG[Oic][Nle]P[Phe(4-Cl)]-OH (SMILES CCCCCCCCCCCCC(=O)N[C@@H](CCC(=O)NCCOCCOCC(=O)NCCOCCOCC(=O)N[C@@H](CCC(N)=O)C(=O)N[C@@H](CCCCNC(=N)N)C(=O)N1CCC[C@H]1C(=O)N(C)[C@@H](CCCNC(=N)N)C(=O)N[C@@](C)(CC(C)C)C(=O)N[C@@H](CO)C(=O)N[C@@H](Cc1c[nH]cn1)C(=O)N[C@@H](CCCCN)C(=O)NCC(=O)N1[C@H](C(=O)N[C@@H](CCCC)C(=O)N2CCC[C@H]2C(=O)N[C@@H](Cc2ccc(Cl)cc2)C(=O)O)C[C@@H]2CCCC[C@@H]21)C(=O)O) [Apelin polypeptide SEQ ID NO: 359] | 0.0529 | 0.116 |
